Key:
Test in all cases: spectrophotometric decarboxylation kinetics
Type in all cases: biochemical, Bordetella bronchiseptica
Conditions in all cases: assay conditions in Supporting Information
[1] = substrate: O=C(O)C(O)(C(=O)O)c1ccc2sccc2c1
[2] = substrate: O=C(O)C(O)(C(=O)O)c1cc2ccccc2o1
[3] = substrate: O=C(O)C(O)(C(=O)O)c1cccs1
[4] = substrate: O=C(O)C(O)(C(=O)O)c1cccnc1
[5] = substrate: O=C(O)C(C(=O)O)c1ccco1
[6] = substrate: O=C(O)C(O)(C(=O)O)c1ccco1
[7] = substrate: Cc1ccc(C(O)(C(=O)O)C(=O)O)o1

B1: aryl/alkenyl malonate decarboxylase (AMDase) (Bordetella bronchiseptica) (protein)
chain: MQQASTPTIGMIVPPAAGLVPADGARLYPDLPFIASGLGLGSVTPEGYDAVIESVVDHARRLQKQGAAVVSLMGTSLSFYRGAAFNAALTVAMREATGLPCTTMSTAVLNGLRALGVRRVALATAYIDDVNERLAAFLAEESLVPTGCRSLGITGVEAMARVDTATLVDLCVRAFEAAPDSDGILLSCGGLLTLDAIPEVERRLGVPVVSSSPAGFWDAVRLAGGGAKARPGYGRLFDES
notes: AMDase, construct details only in Supporting Information
Question: Which results are given for B1?
Answer: Km [1]: 3.1 ± 0.17 mM; kcat [1]: 148 ± 4.6 s⁻¹; kcat/Km [1]: 48300 ± 170 M⁻¹ s⁻¹; Km [2]: 8.2 ± 1.6 mM; kcat [2]: 278 ± 33.9 s⁻¹; kcat/Km [2]: 33900 ± 320 M⁻¹ s⁻¹; Km [3]: 4.3 ± 0.5 mM; kcat [3]: 166 ± 10.6 s⁻¹; kcat/Km [3]: 38600 ± 200 M⁻¹ s⁻¹; Km [4]: 6.4 ± 0.6 mM; kcat [4]: 225 ± 36.3 s⁻¹; kcat/Km [4]: 35300 ± 250 M⁻¹ s⁻¹; Km [5]: 10.1 ± 4.5 mM; Km [6]: 8.6 ± 2.1 mM; kcat [6]: 61.9 ± 6 s⁻¹; kcat/Km [6]: 6400 ± 400 M⁻¹ s⁻¹; Km [7]: 9.8 ± 2.2 mM; kcat [7]: 37.1 ± 8.8 s⁻¹; kcat/Km [7]: 3800 ± 500 M⁻¹ s⁻¹
